The target in one assay is T1, human MerTK (human, UniProt Q12866 21-999).
T1 construct: endogenous receptor on cells; also called human MerTK endogenously expressed on SK-MEL-5 cells; MerTK on human macrophages
T1 sequence: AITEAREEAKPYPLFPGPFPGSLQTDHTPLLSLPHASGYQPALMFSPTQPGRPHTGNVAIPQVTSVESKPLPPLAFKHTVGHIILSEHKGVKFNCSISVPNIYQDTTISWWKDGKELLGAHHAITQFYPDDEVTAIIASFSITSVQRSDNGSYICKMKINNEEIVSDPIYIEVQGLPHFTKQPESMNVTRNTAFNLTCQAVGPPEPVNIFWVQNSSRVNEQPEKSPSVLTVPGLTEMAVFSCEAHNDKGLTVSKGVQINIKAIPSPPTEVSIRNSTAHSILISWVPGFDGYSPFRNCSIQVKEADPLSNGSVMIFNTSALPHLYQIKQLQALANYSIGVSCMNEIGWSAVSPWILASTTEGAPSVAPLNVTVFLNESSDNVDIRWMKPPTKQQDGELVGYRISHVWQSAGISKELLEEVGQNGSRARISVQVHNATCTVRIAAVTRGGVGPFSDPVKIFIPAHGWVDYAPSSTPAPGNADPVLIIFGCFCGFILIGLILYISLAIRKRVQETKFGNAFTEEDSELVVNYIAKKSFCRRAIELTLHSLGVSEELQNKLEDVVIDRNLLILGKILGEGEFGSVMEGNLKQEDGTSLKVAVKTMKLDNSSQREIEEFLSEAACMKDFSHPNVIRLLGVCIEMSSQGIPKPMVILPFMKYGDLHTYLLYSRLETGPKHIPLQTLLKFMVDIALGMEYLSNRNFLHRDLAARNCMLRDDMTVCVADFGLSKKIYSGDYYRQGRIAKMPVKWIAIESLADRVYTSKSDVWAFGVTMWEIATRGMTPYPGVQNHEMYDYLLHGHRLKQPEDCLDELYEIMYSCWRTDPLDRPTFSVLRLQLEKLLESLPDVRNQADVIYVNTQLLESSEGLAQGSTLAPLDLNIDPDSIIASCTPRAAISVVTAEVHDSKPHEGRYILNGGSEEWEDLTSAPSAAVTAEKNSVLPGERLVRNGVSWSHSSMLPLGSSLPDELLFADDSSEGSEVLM
As to the kind of experiment: FACS, SK-MEL-5 cells, 10 ug/ml. On the procedure: To determine whether recombinant anti-human MerTK antibodies of the present disclosure bind to human MerTK endogenously expressed on SK-MEL-5 cells and CHO cells overexpressing mouse MerTK (CHO-muMerTK OE cells), as compared to A375 and parental CHO cells as negative controls, the following experiments were performed. SK-MEL-5 cells, A375 cells, CHO-muMerTK OE cells, and CHO parental cells were plated at 100,000 cells/well. Anti-MerTK antibodies were added to the cells at 10 μg/ml. After 60 minutes on ice, cells were washed and then stained with PE-conjugated goat anti-human IgG antibody (Southern Biotech Cat #2040-09, Birmingham, AL) in the presence of Fc block solution on ice for 30 minutes, and then washed twice with cold FACS buffer (2% FBS in PBS). Mouse anti-human MerTK-PE conjugated (Biolegend, Clone 590H11G1E3) or anti-mouse MerTK-PE conjugated (ThermoFisher, Clone DS5MMER) antibodies were used as positive controls. Stained cells were acquired on a BD FACS Canto II cytometer and the mean fluorescence intensity (MFI) was calculated with FlowJo.

Assay [1] concerns the target T2, endogenous murine MerTK on bone marrow-derived macrophages (mouse, UniProt Q60805 19-994).
T2 construct: whole, on cells; MFI on MerTK KO BMDM subtracted; also called BMDM WT-KO
T2 sequence (looked up): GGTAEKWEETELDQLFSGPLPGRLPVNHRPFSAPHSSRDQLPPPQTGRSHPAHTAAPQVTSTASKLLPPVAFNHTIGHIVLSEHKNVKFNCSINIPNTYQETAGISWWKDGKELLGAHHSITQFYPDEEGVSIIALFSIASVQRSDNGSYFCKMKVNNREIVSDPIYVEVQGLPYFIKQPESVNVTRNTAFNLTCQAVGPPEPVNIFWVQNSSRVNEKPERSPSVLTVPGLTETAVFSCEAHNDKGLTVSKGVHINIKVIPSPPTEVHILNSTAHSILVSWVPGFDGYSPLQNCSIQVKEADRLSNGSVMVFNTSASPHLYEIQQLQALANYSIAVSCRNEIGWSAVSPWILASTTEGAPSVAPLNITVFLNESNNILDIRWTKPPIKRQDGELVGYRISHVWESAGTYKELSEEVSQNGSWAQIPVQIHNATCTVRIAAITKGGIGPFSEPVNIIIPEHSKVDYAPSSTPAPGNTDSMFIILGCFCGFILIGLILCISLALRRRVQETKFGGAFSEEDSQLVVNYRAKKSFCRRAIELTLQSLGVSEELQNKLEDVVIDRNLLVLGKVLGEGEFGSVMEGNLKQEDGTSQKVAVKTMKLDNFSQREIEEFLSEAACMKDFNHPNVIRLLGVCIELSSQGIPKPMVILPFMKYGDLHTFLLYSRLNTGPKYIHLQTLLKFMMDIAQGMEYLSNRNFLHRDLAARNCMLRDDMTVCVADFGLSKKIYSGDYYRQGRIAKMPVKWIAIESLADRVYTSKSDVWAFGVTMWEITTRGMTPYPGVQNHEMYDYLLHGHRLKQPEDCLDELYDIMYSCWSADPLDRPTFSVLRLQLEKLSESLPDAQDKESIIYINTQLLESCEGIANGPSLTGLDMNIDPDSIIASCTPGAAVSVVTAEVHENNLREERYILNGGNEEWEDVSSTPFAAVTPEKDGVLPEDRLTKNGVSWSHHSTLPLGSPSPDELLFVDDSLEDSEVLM
Nature of the assay: FACS, mouse BMDM, WT minus MerTK KO. In outline: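 Bone marrow cells from MerTK WT and KO mice differentiated into macrophages with 50 ng/ml M-CSF for seven days. Antibodies at 10 μg/ml bound 60 min on ice, then PE anti-human IgG with Fc block 30 min on ice. Flow cytometry read-out as MFI, WT signal minus KO.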
(In general: In flow cytometry, cells or beads pass a laser one at a time.)

B1: MTK-206 (antibody, human IgG1, V domains shown)
VH: QVQLQQSGAELARPGASVKMSCKASGYTFTSYTMHWVKQRPGQGLEWIGYINPSSGYIKNSQKFKDKATLTADKSSSTAYMQLSSLTSEDSAVYYCARTVYGYYGSSPDYWGQGTTLTVSS
VL: DIQMTQSPSSLSASLGERVSLTCRASQDIGSNLNWLQQEPDGTIKRLIYATSSLESGVPKRFSGSRSGSDYSLTISSLESEDFVDYYCLQYDSSPWTFGGGTKLEIK
As for B1, the MFI in the assay with human MerTK came out at 3270 MFI; in assay [1], 431 MFI.

B2: MTK-212 (antibody, human IgG1, V domains shown)
VH: QVQLQQSGPELVKPGASVKISCKASGYAFSSSWVNWVKQRPGKGLEWIGRIYPGDGDSNYNGNFKGKATLTADKSSNTAYLQLSSLTSEDSAVYFCARKSHFIYYTLDYWGQGTPVTVSS
VL: DIVMTQSHKFKSTSVGDRVSIACKASQDVGTSVAWYQQKPGKSPKLLIYWASSRHTGVPDRFTGSGSGTDFTLTISNVQSEDLTDYFCQQYSTYPYTFGGGTKLEIK
Turning to B2, the MFI with human MerTK turned out to be 8080 MFI; in assay [1], 9090 MFI.

B3: MTK-220 (antibody, V domains shown)
VH: EVQLVESGGGLVKPGGSLKLSCAASGFTFSDYGMHWVRQAPEKGLEWVAFISGGSGTIYYEDTVKGRFTISRDNAKNTLFLQMTSLRSEDTAMYYCTRGGNYFDYWGQGTTLTVSS
VL: NIMLTQSPSSLAVSAGEKVTMTCKSSQSVLYSSNQKNYLAWYQQKPGQSPKLLIYWASTRESGVPDRFTGSGSGTDFTLTISNVQAEDLAVYYCHQYFSSWTFGGGTKLEIK
For the molecule B3, the MFI in the assay with human MerTK came to 29000 MFI; in assay [1] it was 757 MFI.

B4: MTK-204 (antibody, human IgG1, V domains shown)
VH: EVQLVESGGGLVKPGGSLKLSCAASGFTFSDYGMHWVRQAPEKGLEWVAYISSGTSTIYYEDTVKGRFTISRDNAKNTLFLQMTSLRSEDTAMYYCARGGLLFDYWGQGTTLTVSS
VL: NIMMTQSPSSLAVSAGEKVTMSCKSSQSVLYSSNQKNYLAWYQQKPGQSPKLLIQWASTRESGVPDRFTGSGSETDFTLTIRSVQAEDLAVYYCHQYFSSWTFGGGTKLEIK
Turning to B4, the figures for the MFI (with human MerTK; in assay [1]) were 33800 MFI and 602 MFI, respectively.

B5: MTK-202 (antibody, human IgG1, V domains shown)
VH: EVQLVESGGGLVKPGGSLKLSCAASGFTFSDFGMHWVRQVPEKGLEWVAFISGGSNTIYYTDTVKGRFTISRDNAKNTLFLQMTSLRSEDTAMYYCVRNGNSFAYWGQGTLVTVSA
VL: NIMMTQSPSSLAVSAGEKVTMNCKSSQSVLYSSNQKNYLAWYQQKPGQSPKLLIYWASTRESGVPDRFTGSGSGTDFTLTISNIQAEDLAIYYCHQYFFSWTFGGGTKLEIK
Regarding B5, the results for the MFI (in the assay with human MerTK; in assay [1]) were 46100 MFI and 4510 MFI, respectively.

B6: MTK-229 (antibody, human IgG1, V domains shown)
VH: QVQLQQSGPELVKPGASVKISCKASGYEFSRSWMNWVKQRPGKGLEWIGRIYPGDGDTNYKGKLKGQATLTADKSSSTAYMQLSSLTFEDSAVYFCARGGGYYYDSRYEGFVYWGQGTVVTVSA
VL: QIVLTQSPAIMSASPGEEVTMTCSASSSVSYMHWYQQKSGTSPKRWIYDTSKLASGVSGRFSGSGSGTSYSLTISSMEAEDAATYYCQQWSSNPPITFGAGTKLELK
Consider B6, for which the MFI with human MerTK came out at 32200 MFI; in assay [1], 2870 MFI.

B7: MTK-226 (antibody, human IgG1, V domains shown)
VH: QVQLQQSGPELVKPGASVKISCKASGYSFTSYYIHWVKQRPGQGLEWIGWIFPGNGNTKYNENFRGKATLTADTSSSTAYMQLSSLTSEDSAVYYCARLGLIYALDYWGQGTSVTVSS
VL: DAVMTQTPLSLPVSLGDQASISCRSSQSLESSNGNTYLHWYLQKPGQSPQLLIYRVSNRFSGVLDRFSGSGSGTDFTLQISRVEAEDLGVYFCLQVTHVPFTFGSGTKLEIK
For B7, the MFI with human MerTK was 49100 MFI; in assay [1] it was 10400 MFI.

B8: MTK-211 (antibody, human IgG1, V domains shown)
VH: QVQLQQSGAELMKPGASVKLSCKATGYTFTGYWIEWVKQRPGHGLEWIGEILPGSGGSNYNEKFKGKATFTADTSSNTAYIQLSSLTTEDSAIYCCARGEPSYFSDAGFAYWGQGTLVTVSA
VL: QIVLTQSPAVMSASPGEKVTMTCSASSSITYMHWYQQKPGTSPKRWIYDTSKLASGVPARFSGSGSGTSYFLTISSMEAEDVATYYCHQRSTYPYTFGGGTKLEIM
On to B8, for which the results for the MFI (with human MerTK; in assay [1]) were 30500 MFI and 4490 MFI, respectively.

B9: MTK-213 (antibody, human IgG1, V domains shown)
VH: QVQLQQPGAELVKPGASVKMSCKASGYTFTSYWITWVKQRPGQGHEWIGEIYPGIGSTNYNEKFKSKATLTVDTSSRTAYMQLSSLTSEDSAVYFCARGAYTKYYFDYWGQGTTLTVSS
VL: DIVMTQSHKFMSTSVGDRVSITCKASQDVGDAVAWYQQKPGQTPKLLIYWASTRHTGVPDRFTGSGSGTDFTLTISNVQSEDLADYFCQQYSSYLMYTFGGGTKLEIK
In the case of B9, the MFI came out at 40300 MFI with human MerTK and 8450 MFI in assay [1].

B10: MTK-223 (antibody, human IgG1, V domains shown)
VH: DVQLQESGPGLVKPSQSLSLTCSVTGYSITSGYYWNWIRQFPGNKLEWMGYISYDGTNNYNPSLKNRISITRDTSENQFFLKLNSVTTEDTATYFCVRGAGYWGQGTTLTVSS
VL: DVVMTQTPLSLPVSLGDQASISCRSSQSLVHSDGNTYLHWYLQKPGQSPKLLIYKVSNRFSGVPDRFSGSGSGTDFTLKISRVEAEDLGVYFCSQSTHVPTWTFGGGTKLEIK
Take B10: the MFI with human MerTK is 26800 MFI; in assay [1], 316 MFI.

B11: MTK-219 (antibody, human IgG1, V domains shown)
VH: QVQLQQSGADLMKPGASVKLSCKATGNTFTGYWIEWVKQRPGHGLEWIGEILTGSGSTNYNERFKGKATFTADTSSNTAYMQLSSLTTEDSAIYYCAGSYFTNSWFPYWGQGSLVTVSA
VL: DIVLTQSPASLAVSLGQRATISCRASESVDSYGNSFMHWYQQKPGQPPKLLIYRAYTLESGIPARFSGSGSRTDFTLTINPVEADDVATYYCQQSNEDPRTFGGGTKLEIK
Regarding B11, the MFI in the assay with human MerTK turned out to be 26800 MFI; in assay [1], 6180 MFI.

B12: MTK-222 (antibody, human IgG1, V domains shown)
VH: QVQLQQSGADLMKPGASVKLSCKATGYTFTGYWIEWVKQRPGHGLEWIGEILTGSGSSNYNEKFKGKATFTADSSSNTAFMQLSSLTTEDSAIYYCAGSYYSNSWFPYWGQGSLVTVSA
VL: DIVLTQSPVSLAVSLGQRATISCRASESVDSYGSSFMHWYQQKPGQPPKLLIYRASSLESGIPARFSGSGSRTDFTLTINPVETDDVATYYCQQSNEDPRTFGGGTKLEIK
In the case of B12, the values for the MFI (with human MerTK; in assay [1]) were 27500 MFI and 3680 MFI, respectively.

For the origin of these results see patent publication US20240294650A1 (Alector, published 2024).
